The values below come from article PMC4045705 (Chembiochem : a European journal of chemical biology, 2014).

A word on the Kd: it is the equilibrium constant for the complex coming apart. A high value points to weaker binding.

For this assay, the target named is phosphorylated extracellular regulated kinase 2 (pERK2) (UniProt P28482 1-360, phosphorylated (sites not given)). The assay is described as follows: SPR. In general terms: In SPR one partner is held on a chip, and binding of the other changes the refractive index at the surface.
Sequence of phosphorylated extracellular regulated kinase 2 (pERK2) (P28482 whole entry): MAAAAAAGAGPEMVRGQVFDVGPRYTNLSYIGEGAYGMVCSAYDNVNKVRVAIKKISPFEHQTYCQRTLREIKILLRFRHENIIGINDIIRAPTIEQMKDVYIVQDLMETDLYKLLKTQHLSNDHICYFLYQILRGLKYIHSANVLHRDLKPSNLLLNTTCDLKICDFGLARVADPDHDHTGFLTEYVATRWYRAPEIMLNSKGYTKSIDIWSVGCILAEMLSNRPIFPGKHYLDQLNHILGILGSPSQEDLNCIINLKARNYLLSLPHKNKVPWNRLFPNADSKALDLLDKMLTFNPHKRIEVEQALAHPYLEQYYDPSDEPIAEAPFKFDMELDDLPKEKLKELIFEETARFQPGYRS

B1: synthetic DARPin pE59 (designed binder)
chain: GGGGGSDLGKKLLEAARAGQDDEVRILXANGADVNALDEDGLTPLHLAAQLGHLEIVEVLLKYGADVNAEDNFGITPLHLAAIRGHLEIVEVLLKHGADVNAQDKFGKTAFDISIDNGNEDLAEILQKLN
modifications: norleucine (Nle) at 28 in place of Met; C-terminal carboxamide (CONH2) at 130Asn
On to B1, for which binding was put at a Kd of 190 nM.
